In data set [1] the target is Mos1 transposase (containing the solubilizing mutation T216A), hydrogenated (Drosophila mauritiana). Kind of data set: SAXS + SANS.
Data set [2] has the same target. Put plainly: […], room temperature, 20 mM Tris pH 7.5, 0.3 M KCl, 1 mM DTT.
Data set [3] shares this target. Kind of data set: SEC-MALS. Background: SEC sorts molecules by how far they enter the pores of the column.
Data set [4] shares this target. Kind of data set: SAXS + SANS. The source holds these as a separate data set.
Data set [5] deals with N130 Mos1 (the N-terminal 130 amino acids of Mos1 transposase, DNA-binding domain) (Drosophila mauritiana). Put plainly: SEC-MALS.
The target in the next data set is T1, H-Mos1 transposase (UniProt Q7JQ07 1-345, T216A).
T1 sequence: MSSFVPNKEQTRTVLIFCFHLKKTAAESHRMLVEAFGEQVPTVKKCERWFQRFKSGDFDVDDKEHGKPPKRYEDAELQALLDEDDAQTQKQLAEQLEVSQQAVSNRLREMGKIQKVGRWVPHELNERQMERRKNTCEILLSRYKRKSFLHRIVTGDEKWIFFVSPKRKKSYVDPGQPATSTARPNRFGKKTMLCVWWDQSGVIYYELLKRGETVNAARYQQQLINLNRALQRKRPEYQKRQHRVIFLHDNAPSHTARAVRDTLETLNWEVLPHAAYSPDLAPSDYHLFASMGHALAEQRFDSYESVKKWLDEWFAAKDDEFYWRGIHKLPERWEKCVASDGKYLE

Another data set has as its target T2, D-Mos1 transposase (UniProt Q7JQ07 1-345, T216A).
T2 sequence: T1 sequence
Put plainly: SANS contrast variation.

Values joined by “and” are separate entries in the source; they are usually repeats but may differ in a detail not shown here. Equal entries are not always repeated.

In general, stoichiometry N refers to the number of molecules, sites or subunits per partner or assembly. Consider “Mos1 transposase (containing the solubilizing mutation T216A), hydrogenated (enzyme)”, for which the stoichiometry N in data set [1], in data set [2], in data set [3] and in data set [4] was 2 throughout.

As for “N130 Mos1 (the N-terminal 130 amino acids of Mos1 transposase, DNA-binding domain) (domain or fragment)”, the stoichiometry N in data set [5] was 2 and 4.

B1: 50-mer IR DNA (SEC2 duplex) (dsDNA)
DNA 1: TTTAAAAAAAACGACATTTCATACTTGTACACCTGATAGTTTCTATATTC
DNA 2: GAATATAGAAACTATCAGGTGTACAAGTATGAAATGTCGTTTTTTTTAAA
Regarding B1, the binding result with H-Mos1 transposase and with D-Mos1 transposase was “binds” each time.
